Molecular target: 非洲猪瘟病毒(African swine fever Virus, ASFV)全病毒 / 灭活非洲猪瘟病毒抗原

B1: 抗非洲猪瘟病毒的ScFv抗体VH-VLλ6 (scFv)
scFv: MEVKLVESGGGLVQPGGSLRLSCVGSGVTVTSYTVSWVRQAPGKGLEWLAGNGSSSKTTVDSDSVRGRFFISRDNSQNTAYLQMNSLRTEDTARYYCVQTIDSDCTSRLWGPGVEVVVGGGGSGGMSQTVIQEPAMSVSPGGTVTLTCAFSSATVTISNYPGWYQQTPRQPPRQLIYGLSSRPTGVPSRFSGAISGNKATLTITGAQAEDEADYFCALYNAGSRYNYMFGGGTHLTVL
In the case of B1, the OD450nm is reported as 1.15 OD450nm.
